In US20250092426, “CAS ENDONUCLEASES AND RELATED METHODS” (Flagship Pioneering Innovations VII, LLC, published 2025):

Target: T1, CasEnd-18 (synthetic construct)
T1 chain: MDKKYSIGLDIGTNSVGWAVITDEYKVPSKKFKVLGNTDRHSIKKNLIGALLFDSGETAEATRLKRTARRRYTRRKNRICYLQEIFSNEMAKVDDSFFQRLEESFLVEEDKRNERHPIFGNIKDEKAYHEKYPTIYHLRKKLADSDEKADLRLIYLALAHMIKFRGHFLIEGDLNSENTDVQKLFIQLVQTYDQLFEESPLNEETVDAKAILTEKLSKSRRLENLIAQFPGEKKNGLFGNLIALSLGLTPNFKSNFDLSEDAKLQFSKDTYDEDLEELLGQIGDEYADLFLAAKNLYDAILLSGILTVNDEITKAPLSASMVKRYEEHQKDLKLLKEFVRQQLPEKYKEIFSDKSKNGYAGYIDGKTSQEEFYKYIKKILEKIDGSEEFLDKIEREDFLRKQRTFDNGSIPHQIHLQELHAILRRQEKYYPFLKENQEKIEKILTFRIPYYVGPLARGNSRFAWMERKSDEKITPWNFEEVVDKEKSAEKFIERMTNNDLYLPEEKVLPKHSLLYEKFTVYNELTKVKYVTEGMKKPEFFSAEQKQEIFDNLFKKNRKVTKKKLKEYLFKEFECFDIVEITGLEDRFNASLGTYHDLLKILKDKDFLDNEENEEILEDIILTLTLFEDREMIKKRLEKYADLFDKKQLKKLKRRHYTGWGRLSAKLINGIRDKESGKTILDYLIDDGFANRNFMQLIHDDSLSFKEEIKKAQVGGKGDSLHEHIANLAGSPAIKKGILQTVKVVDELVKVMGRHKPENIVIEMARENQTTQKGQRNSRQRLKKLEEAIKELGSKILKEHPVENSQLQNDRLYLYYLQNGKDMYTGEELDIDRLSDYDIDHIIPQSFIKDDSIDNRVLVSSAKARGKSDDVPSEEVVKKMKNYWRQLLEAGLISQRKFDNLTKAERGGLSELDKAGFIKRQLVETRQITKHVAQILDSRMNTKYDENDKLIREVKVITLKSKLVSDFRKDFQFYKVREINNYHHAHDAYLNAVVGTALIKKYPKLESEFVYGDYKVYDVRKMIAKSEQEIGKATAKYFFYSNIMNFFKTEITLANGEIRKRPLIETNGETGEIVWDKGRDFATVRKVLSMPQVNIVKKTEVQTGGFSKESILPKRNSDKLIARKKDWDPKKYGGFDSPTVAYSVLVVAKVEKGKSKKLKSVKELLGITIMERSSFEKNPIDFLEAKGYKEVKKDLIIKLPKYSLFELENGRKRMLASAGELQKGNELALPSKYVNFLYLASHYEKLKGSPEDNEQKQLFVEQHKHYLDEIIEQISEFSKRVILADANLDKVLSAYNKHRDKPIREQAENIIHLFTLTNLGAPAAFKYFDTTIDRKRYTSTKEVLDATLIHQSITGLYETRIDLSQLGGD
Assay: cell_activity; +++; HEK293T; PAM not stated
Summary of the method: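 BFP-to-GFP conversion via reverse transcriptase fusion with each Cas endonuclease plus template RNA: 200 ng of each plasmid nucleofected into 250,000 BFP-expressing HEK293T cells (program DS-150). Percent GFP+ cells by flow cytometry at day 4 measured editing.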

B1: BFP-to-GFP template RNA ; BFP reporter protospacer (ssRNA ; dsDNA)
RNA: GCCGAAGCACUGCACGCCGUGUUUUAGAGCUAGAAAUAGCAAGUUAAAAUAAGGCUAGUCCGUUAUCAACUUGAAAAAGUGGCACCGAGUCGGUGCACCCUGACGUACGGCGUGCAGUGCUU
DNA 1: GCCGAAGCACTGCACGCCGT
DNA 2: ACGGCGTGCAGTGCTTCGGC
- activity: ≥ 100 % of reference
